From publication PMC2871463 (The Journal of Biological Chemistry, 2010)

T1: matrix metalloproteinase-2 (MMP-2), recombinant human (human, UniProt P08253 30-660)
T1 sequence (looked up): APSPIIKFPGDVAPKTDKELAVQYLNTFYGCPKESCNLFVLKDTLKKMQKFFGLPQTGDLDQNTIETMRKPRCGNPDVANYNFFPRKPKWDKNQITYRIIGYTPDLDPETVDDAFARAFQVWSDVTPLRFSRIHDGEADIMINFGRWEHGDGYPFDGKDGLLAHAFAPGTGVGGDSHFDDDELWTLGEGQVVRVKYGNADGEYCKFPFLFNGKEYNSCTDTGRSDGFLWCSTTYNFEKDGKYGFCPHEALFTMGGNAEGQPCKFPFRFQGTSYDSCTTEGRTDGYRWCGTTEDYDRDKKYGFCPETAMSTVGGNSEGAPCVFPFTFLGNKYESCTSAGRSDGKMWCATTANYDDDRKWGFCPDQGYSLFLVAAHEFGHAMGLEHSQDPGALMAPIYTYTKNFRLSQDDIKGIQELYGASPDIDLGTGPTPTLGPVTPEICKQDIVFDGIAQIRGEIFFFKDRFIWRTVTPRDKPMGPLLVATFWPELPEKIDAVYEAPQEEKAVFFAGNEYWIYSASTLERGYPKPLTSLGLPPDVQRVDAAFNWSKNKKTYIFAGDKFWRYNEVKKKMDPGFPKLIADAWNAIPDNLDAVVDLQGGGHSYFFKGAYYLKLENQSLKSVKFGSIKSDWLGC

T2: bone morphogenetic protein-1 (BMP-1), recombinant human (human, UniProt P13497-2 121-730)
T2 sequence (looked up): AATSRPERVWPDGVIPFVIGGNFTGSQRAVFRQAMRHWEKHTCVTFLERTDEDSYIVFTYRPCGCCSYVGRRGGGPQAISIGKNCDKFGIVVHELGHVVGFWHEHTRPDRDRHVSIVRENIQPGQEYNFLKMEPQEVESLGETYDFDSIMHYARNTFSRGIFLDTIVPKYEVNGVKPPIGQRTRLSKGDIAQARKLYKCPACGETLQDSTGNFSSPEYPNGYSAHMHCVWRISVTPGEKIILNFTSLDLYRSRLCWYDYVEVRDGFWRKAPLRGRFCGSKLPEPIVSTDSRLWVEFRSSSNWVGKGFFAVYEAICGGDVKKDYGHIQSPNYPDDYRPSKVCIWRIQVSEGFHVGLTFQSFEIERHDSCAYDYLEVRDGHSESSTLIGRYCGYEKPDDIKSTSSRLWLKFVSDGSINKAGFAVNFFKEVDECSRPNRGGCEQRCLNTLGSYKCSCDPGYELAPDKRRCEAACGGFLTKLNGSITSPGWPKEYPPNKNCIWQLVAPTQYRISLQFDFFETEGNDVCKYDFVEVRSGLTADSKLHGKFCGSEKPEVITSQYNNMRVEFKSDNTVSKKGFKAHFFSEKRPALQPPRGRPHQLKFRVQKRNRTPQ

B1: NTRshort (NTRs), short form of the netrin-like (NTR) domain of human PCPE-1 starting at Cys318 (domain or fragment, UniProt Q15113 318-449, looked up)
chain: CPKQCRRTGTLQSNFCASSLVVTATVKSMVREPGEGLAVTVSLIGAYKTGGLDLPSPPTGASLKFYVPCKQCPPMKKGVSYLLMGQVEENRGPVLPPESFVVLHRPNQDQILTNLSKRKCPSQPVRAAASQD
B2: procollagen C-proteinase enhancer-1 (PCPE-1), full-length, recombinant human (natural protein, UniProt Q15113 26-449, looked up)
chain: QTPNYTRPVFLCGGDVKGESGYVASEGFPNLYPPNKECIWTITVPEGQTVSLSFRVFDLELHPACRYDALEVFAGSGTSGQRLGRFCGTFRPAPLVAPGNQVTLRMTTDEGTGGRGFLLWYSGRATSGTEHQFCGGRLEKAQGTLTTPNWPESDYPPGISCSWHIIAPPDQVIALTFEKFDLEPDTYCRYDSVSVFNGAVSDDSRRLGKFCGDAVPGSISSEGNELLVQFVSDLSVTADGFSASYKTLPRGTAKEGQGPGPKRGTEPKVKLPPKSQPPEKTEESPSAPDAPTCPKQCRRTGTLQSNFCASSLVVTATVKSMVREPGEGLAVTVSLIGAYKTGGLDLPSPPTGASLKFYVPCKQCPPMKKGVSYLLMGQVEENRGPVLPPESFVVLHRPNQDQILTNLSKRKCPSQPVRAAASQD

Columns and labels:
[1] = target: T1, matrix metalloproteinase-2 (MMP-2), …; test: SPR
[2] = target: T2, bone morphogenetic protein-1 (BMP-1), …; test: SPR

Binder | Kd [1] [nM] | KD of site 1 (two binding sites model) [2] [nM] | KD of site 2 (two binding sites model) [2] [nM]
B1 | ≥ 1000 | – | –
B2 | – | 129 ± 19 | 5200 ± 500
